{"source": "patent US20250129150A1", "target": "recombinant human C1q (human) (UniProt P02745)", "sequence (P02745 23-245 limits assumed, chain 1 of 3)": "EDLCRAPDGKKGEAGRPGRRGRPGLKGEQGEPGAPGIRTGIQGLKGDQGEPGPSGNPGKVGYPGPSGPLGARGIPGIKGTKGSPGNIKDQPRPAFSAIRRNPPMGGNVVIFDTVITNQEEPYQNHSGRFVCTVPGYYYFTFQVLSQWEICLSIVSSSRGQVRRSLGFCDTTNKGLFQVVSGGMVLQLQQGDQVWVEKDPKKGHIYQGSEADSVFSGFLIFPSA", "sequence (P02746 28-253 limits assumed, chain 2 of 3, further chain)": "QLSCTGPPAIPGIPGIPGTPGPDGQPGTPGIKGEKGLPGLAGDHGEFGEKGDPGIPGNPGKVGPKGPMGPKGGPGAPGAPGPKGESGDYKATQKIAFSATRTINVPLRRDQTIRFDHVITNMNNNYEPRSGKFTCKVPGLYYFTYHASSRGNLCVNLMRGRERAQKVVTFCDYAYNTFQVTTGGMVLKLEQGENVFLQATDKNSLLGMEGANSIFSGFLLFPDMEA", "sequence (P02747 29-245 limits assumed, chain 3 of 3, further chain)": "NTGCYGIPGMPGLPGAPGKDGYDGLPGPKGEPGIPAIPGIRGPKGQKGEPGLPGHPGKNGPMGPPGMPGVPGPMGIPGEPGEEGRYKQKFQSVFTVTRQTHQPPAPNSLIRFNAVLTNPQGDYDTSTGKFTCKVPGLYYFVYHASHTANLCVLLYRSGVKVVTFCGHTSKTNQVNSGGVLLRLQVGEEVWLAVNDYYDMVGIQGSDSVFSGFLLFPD", "test": "SPR, antibody captured on anti-kappa chip, C1q as analyte; signal relative to rituximab"}
{"substance": "Lebrikizumab (Construct 1) (antibody; other documents disagree on this pair)", "values": [{"measurement": "C1q (Signal Relative to Rituximab)", "result": 39.6, "unit": "%"}]}
